Measured values published in the supplement of paper PMC9112550, “Optimization of the antimicrobial peptide Bac7 by deep mutational scanning” (BMC Biology, 2022).

system: Escherichia coli TOP10; experiment: shrunken log2 fold change of peptide-encoding DNA abundance (4.5 h post-induction vs induction); higher = less antimicrobial activity (less host growth inhibition); conditions: time post-induction: 4.5 h; library: site-saturation at positions 5, 18, 19, 20
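Note: peptides expressed intracellularly from a pBAD plasmid library in pooled LB shake-flask culture, induced with 0.3% L-arabinose, DNA abundance read by NGS, three biological replicates, DESeq2 with apeglm shrinkage.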

Sequence | shrunken log2 fold change
RRIRLRPPRLPRPRPRPSEFPRP | -0.855
RRIRIRPPRLPRPRPRPGVYPRP | -0.39
RRIRVRPPRLPRPRPRPILLPRP | -0.815
RRIRVRPPRLPRPRPRPKGKPRP | 0.102
RRIRWRPPRLPRPRPRPCMPPRP | -0.425
RRIRFRPPRLPRPRPRPNCYPRP | -0.435
RRIRIRPPRLPRPRPRPKPTPRP | 0.448
RRIRERPPRLPRPRPRPVLIPRP | -0.153
RRIRMRPPRLPRPRPRPCTDPRP | -0.132
RRIRQRPPRLPRPRPRPLTFPRP | -0.0576
RRIRIRPPRLPRPRPRPFVWPRP | -0.157
RRIRERPPRLPRPRPRPQIYPRP | -0.23
RRIRIRPPRLPRPRPRPNCGPRP | 0.0437
RRIRSRPPRLPRPRPRPDKIPRP | 0.11
RRIRGRPPRLPRPRPRPCGQPRP | 0.142
RRIRRRPPRLPRPRPRPWVYPRP | 0.0234
RRIRHRPPRLPRPRPRPNTCPRP | -0.53
RRIRHRPPRLPRPRPRPKAPPRP | 0.0258
RRIRWRPPRLPRPRPRPAIAPRP | 0.242
RRIRFRPPRLPRPRPRPRNCPRP | -0.132
RRIRSRPPRLPRPRPRPYEGPRP | -0.213
RRIRPRPPRLPRPRPRPHENPRP | -0.0875
RRIRRRPPRLPRPRPRPVFGPRP | 0.329
RRIRFRPPRLPRPRPRPIFVPRP | 0.108
RRIRDRPPRLPRPRPRPQTKPRP | -0.115

Sequence | shrunken log2 fold change
RRIRTRPPRLPRPRPRPAPVPRP | 0.0626
RRIRDRPPRLPRPRPRPDWDPRP | 4.78
RRIRPRPPRLPRPRPRPRIMPRP | -0.0771
RRIRTRPPRLPRPRPRPWLIPRP | 0.00287
RRIRYRPPRLPRPRPRPRVRPRP | 0.175
RRIRPRPPRLPRPRPRPMPKPRP | 0.409
RRIRYRPPRLPRPRPRPYTTPRP | -0.554
RRIRYRPPRLPRPRPRPMEPPRP | -0.0132
RRIRSRPPRLPRPRPRPRCDPRP | 0.144
RRIRYRPPRLPRPRPRPRTTPRP | -0.011
RRIRYRPPRLPRPRPRPIGDPRP | -0.00783
RRIRMRPPRLPRPRPRPFWNPRP | -0.266
RRIRKRPPRLPRPRPRPASPPRP | 0.122
RRIRHRPPRLPRPRPRPHSGPRP | -0.487
RRIRFRPPRLPRPRPRPMPHPRP | -0.0704
RRIRSRPPRLPRPRPRPAIIPRP | 0.0969
RRIRGRPPRLPRPRPRPWIVPRP | 0.189
RRIRTRPPRLPRPRPRPGIVPRP | -0.184
RRIRIRPPRLPRPRPRPWQYPRP | -0.0758
RRIRLRPPRLPRPRPRPPVHPRP | 0.0348
RRIRQRPPRLPRPRPRPLIIPRP | -0.781
RRIRSRPPRLPRPRPRPSHIPRP | -0.849
RRIRMRPPRLPRPRPRPHIFPRP | -0.268
RRIRGRPPRLPRPRPRPQMPPRP | 0.225
RRIRCRPPRLPRPRPRPSHLPRP | -0.53

Sequence | shrunken log2 fold change
RRIRYRPPRLPRPRPRPLLDPRP | -0.296
RRIRPRPPRLPRPRPRPIHRPRP | -0.0135
RRIRSRPPRLPRPRPRPCWDPRP | -0.189
RRIRMRPPRLPRPRPRPTTFPRP | 0.00693
RRIRKRPPRLPRPRPRPPHWPRP | 0.756
RRIRIRPPRLPRPRPRPHKRPRP | -0.169
RRIRDRPPRLPRPRPRPQFLPRP | -0.225
RRIRNRPPRLPRPRPRPIKGPRP | -0.104
RRIRHRPPRLPRPRPRPDFRPRP | -0.0827
RRIRGRPPRLPRPRPRPCNPPRP | -0.266
RRIRPRPPRLPRPRPRPNTQPRP | -0.159
RRIRYRPPRLPRPRPRPVVGPRP | -0.172
RRIRARPPRLPRPRPRPWFWPRP | 0.544
RRIRGRPPRLPRPRPRPDDNPRP | 0.484
RRIRHRPPRLPRPRPRPPSRPRP | 0.17
RRIRVRPPRLPRPRPRPRINPRP | -0.07
RRIRGRPPRLPRPRPRPSPFPRP | 0.168
RRIRNRPPRLPRPRPRPMIQPRP | -0.715
RRIRIRPPRLPRPRPRPDHIPRP | -0.0811
RRIRKRPPRLPRPRPRPAPHPRP | 0.79
RRIRARPPRLPRPRPRPFHEPRP | -0.166
RRIRARPPRLPRPRPRPCPRPRP | 0.898
RRIRMRPPRLPRPRPRPTHSPRP | 0.483
RRIRYRPPRLPRPRPRPVDHPRP | -0.328
RRIRDRPPRLPRPRPRPAVNPRP | 0.092
